Laboratory results: the supplement of paper PMC9170038

Tested on: K4 kissing-loop RNA reporter
Assay: apparent KD of K4 kissing-loop reporter; higher = weaker reporter binding
Conditions: Eterna round: R107
Experimental: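 RNA-MaP round R107: designed RNA switches with theophylline, tryptophan, arginine or FMN aptamers are transcribed on-chip within common flanks. They are titrated with a labelled K4 kissing-loop RNA reporter in RNA-MaP buffer (100 mM Tris pH 7.5, 80 mM KCl, 4 mM MgCl2), without ligand or with the indicated ligand. Median apparent KD per design.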

[1] = input ligand: theophylline 20 uM
[2] = input ligand: tryptophan 2.4 mM
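Further: bound reporter read as fluorescence of individual clusters on recovered sequencing chips by microscopy, with normalized cluster intensities fitted with a binding model.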

| Sequence | apparent KD of K4 kissing-loop reporter (input ligand: FMN 200 uM) | apparent KD of K4 kissing-loop reporter (input ligand: arginine 13.2 mM) | apparent KD of K4 kissing-loop reporter (input ligand: none) | apparent KD of K4 kissing-loop reporter [1] | apparent KD of K4 kissing-loop reporter [2] |
| --- | --- | --- | --- | --- | --- |
| GCUAUGGUAGGAAGGAGCGCUUAAUUAUUAAUAAGAGUGAUGUUCGAUAAUAAAUAUUUAUAGCAGGUAGGUCGCCUACUAUAGC [KL-SSArg B22] | 155 nM | 168 nM | 174 nM | 243 nM | 104 nM |
| ACGUCCGGAUUAAUCGUGGGCAUGGUGGAUACCAGUUCUUUAAUGAACCCUUGGCAGCCACAUGAGUGAUGUUCAUGUGCGAUGA [KL-XTheo-A9 #analogue] | 145 nM | 117 nM | 141 nM | 187 nM | 140 nM |
| AAUAUAUUGUGAAGGAGCGCGAAAAGCAGUGAUGUUGCUUACUUACAAUUUAUUUUUUACACGCAGGUAGGUCGCACAAUAUAUA [JR_SSArginiB_Sub015] | 234 nM | 223 nM | 269 nM | 280 nM | 220 nM |
| UUGUUUGGUUGAGAGGUUGGGCGAGAUGAUACCAGUAUAGUAUUGUACCCUUGGCAGCAUAUGAGAGAUAUAGUGAUGUUGUAUG [SSTheophA.X] | 521 nM | 358 nM | 529 nM | 532 nM | 411 nM |
| UAUGUACACGGGUAGUGGUACAUCGAGGAAGGAGCGUGCGCAGGCACAGGUAGGUCGCCUCAGCGCACGAGUGAUGUUCGUGGGC [Inares] | 327 nM | 259 nM | 306 nM | 298 nM | 265 nM |
| CGGAGUGAUGUUCCGUUAAUUCCUUAUUUACGAGGACCGGUACGGCCGCCACUCGAUUUUGCUUUUAUUUAAUGUUUGGAAAUUU [JR_SSTryptoA_Sub007] | 256 nM | 274 nM | 269 nM | 317 nM | 122 nM |
| AAUAUACAUUAAUUAAUUAAAGGUUCAGAAGGAGCGUGAAUUAACACAGGUAGGUCGCUGAGCGAGUGAUGUUCGCUAUAUACUA [JR_ExcArginiA_Sub004] | 61.4 nM | 73.1 nM | 69.5 nM | 79.9 nM | 58.1 nM |
| CUUAUUAUGUCGGCCGCCACUCAAUGAUAAUCCACUAAAUUGCGAUUCAGUGAUGUUGAAGUGCUGAGGACCGGGACUAUUAACA [theeternabot_sameState_KL_Trp_B_22] | 541 nM | 206 nM | 345 nM | 214 nM | 316 nM |
| GGAUAGGACAGAGGAUAUCCAGUGAUGUUGGAGAAUUCUCCUUAAACAUGUCACAAAAGUGGCAUGGGAGAAGGCUGUCCUAUCG [Mod of Eli's FmnBX 29 v1] | 217 nM | 123 nM | 122 nM | 138 nM | 105 nM |
| CAUCCUACACCUCAAGCAGUGAUGUUGCUACGAGGACCGGUACGGCCGCCACUCGUUUAAGCAUGGAUAUUAGCUGUGCUGACUA [theeternabot_exclusion_KL_Trp_A_16] | 468 nM | 458 nM | 461 nM | 576 nM | 439 nM |
| GGAUAGGACAUAGGAUAUGGUAGUGAUGUUACCAAACUGGUUAAACAUGUCAGAAAACUGGCAUGACCAGAAGGGUGUCCUAUCG [FmnBX 27 U11+G75] | 73 nM | 54.2 nM | 61.8 nM | 45.9 nM | 64.3 nM |
| ACAUUUUCAAGUGAUACCAGACAUUUUUUUUUCUUUAUUUAUGCUAAGUGAUGUUUAGCAGUCCCUUGGCAGCACUAUUUAACUA [JR_Nu_SSTheophyB_Sub031] | 121 nM | 101 nM | 93.2 nM | 169 nM | 115 nM |
| CAGAUAACCUAGGAUACCAGCGUCGCUGACAGGUCGCUGGAGAAGUACAGUGAUGUUGUGCGCCCUUGGCAGCCUGUUUACACAG [theeternabot_exclusion_KL_Theo_B_32] | 255 nM | 204 nM | 223 nM | 207 nM | 198 nM |
| UGUCAUUGGUCGGCCGCCACUAGACGGACAUAAGUCUGUCAAUAAAGAGUGAUGUUCUUAAAUAAUAGGACCGGGACCGAUGACU [TrypBS 28 #SwitchBubble #StaticStem] | 527 nM | 458 nM | 451 nM | 503 nM | 201 nM |
| UUAGAGAUCUCAGGAUAUCAGUGAUGUUGUGAUCCAGAUCUGAGAUAGAAUUCUAUCUCAGAUCAAUGAGAAGGGAGAUCUCAUU [AK4.3 Exc FMN B] | 721 nM | 1200 nM | 1490 nM | 878 nM | 1090 nM |
| CAGCAGAGUGAUGUUCUGCUUACUGCGGAUACCAGCUUUGCCAGAGGCCCUUGGCAGCCGGGCGGCUCAGUGAUGUUGGGUUGUU [Same State Theophylline A GF 14] | 234 nM | 140 nM | 186 nM | 208 nM | 167 nM |
| GUCUCAAAAGAGGCAAGCACUCACGAGGACAAGGAUAUCAUUUCAAUGAGAAGGUGUCCUCGUCCUCAGUGAUGUUGAGGAGUGC [Omei KL FMN A SS E 1] | 423 nM | 159 nM | 259 nM | 299 nM | 233 nM |
| GGAGCAGGUGAAGGAUAUCCCGGGCCAGAGUGAUGUUCUGGAUCCCUUGCCGUGUCUAAACGGGUGGGAGAAGGUCACUGAUAAG [Erinxe] | 137 nM | 187 nM | 213 nM | 178 nM | 231 nM |
| GGGUCUGCUCGAAGGAGCGCCCUGACAGGUUGCUGCCGUGGGCAGUGAUGUUGCUCAGUCCGGCAGGUAGGUCGCGAGCAGACCC | 109 nM | 118 nM | 102 nM | 89.8 nM | 105 nM |
| AGGUUUUGAUUAGGAUAUGCACUGAGGAGGAGAAUAUAGUGAUGUUAUAUAAUAGGAAUUAGUAGAGUAGAAGGGAUUGAGGUUU [SSFMNB.U] | 206 nM | 223 nM | 172 nM | 248 nM | 142 nM |
| CCUGAGUGAUGUUUAGGAGGCCCGAUAGAUACCAGAAAUACUGCGUUCCCUUGGCAGCUACGCGGACGGAAGACUACGUUACACG [theeternabot_exclusion_KL_Theo_A_16] | 390 nM | 222 nM | 324 nM | 379 nM | 325 nM |
